Patent publication US12202907B2, “Nucleic acids encoding and methods of producing proteins comprising antibody chains” (Innate Pharma, priority 2018, dated 2025)

How the values were obtained:
[1] = target: T1, Human CD39-L1 (NTPDase2, ENTPD2) (Homo sapiens, UniProt Q9Y5L3); experiment: ELISA titration on CD39-L1; format: binding
T1 sequence (Q9Y5L3 1-472 isoform Q9Y5L3-2): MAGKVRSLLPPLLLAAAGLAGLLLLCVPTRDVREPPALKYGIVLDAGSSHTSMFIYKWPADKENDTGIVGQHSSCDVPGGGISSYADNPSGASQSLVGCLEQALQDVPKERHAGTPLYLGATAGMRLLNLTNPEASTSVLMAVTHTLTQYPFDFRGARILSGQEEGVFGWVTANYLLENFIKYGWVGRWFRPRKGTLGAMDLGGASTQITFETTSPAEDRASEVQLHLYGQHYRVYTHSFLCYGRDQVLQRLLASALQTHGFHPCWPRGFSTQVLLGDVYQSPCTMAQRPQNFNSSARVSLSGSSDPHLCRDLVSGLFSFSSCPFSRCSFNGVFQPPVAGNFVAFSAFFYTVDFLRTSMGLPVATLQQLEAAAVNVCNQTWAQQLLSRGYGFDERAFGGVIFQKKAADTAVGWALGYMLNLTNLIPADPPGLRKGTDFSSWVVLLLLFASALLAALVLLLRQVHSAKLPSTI
Procedure: (§1) Antibody I-394 was tested for binding to recombinant human CD39 isoforms (Rec-huCD39 isoforms) having amino acid sequences shown below were coated in 96-well plate in PBS 1X at 500 ng/ml or 1 μg/ml at 4° C. overnight. Wells were washed in TBS Tween® 20 (polysorbate 20), and further saturated 2H at RT in TBS Blocking buffer. Dose range concentration of primary antibody was incubated in TBS blocking buffer for 2 h at RT. Wells were washed in TBS Tween® 20 (polysorbate 20). […] Optical density was measured on Enspire™ at OD=450.

[2] = target: T2, human Ramos lymphoma cells (CD39) (Homo sapiens, UniProt P49961); experiment: Antibody titration on Ramos cells by flow cytometry; format: binding; conditions: qualitative
T2 construct: cells that endogenously express CD39 at their surface; host or cells: Ramos
T2 sequence (P49961 1-510): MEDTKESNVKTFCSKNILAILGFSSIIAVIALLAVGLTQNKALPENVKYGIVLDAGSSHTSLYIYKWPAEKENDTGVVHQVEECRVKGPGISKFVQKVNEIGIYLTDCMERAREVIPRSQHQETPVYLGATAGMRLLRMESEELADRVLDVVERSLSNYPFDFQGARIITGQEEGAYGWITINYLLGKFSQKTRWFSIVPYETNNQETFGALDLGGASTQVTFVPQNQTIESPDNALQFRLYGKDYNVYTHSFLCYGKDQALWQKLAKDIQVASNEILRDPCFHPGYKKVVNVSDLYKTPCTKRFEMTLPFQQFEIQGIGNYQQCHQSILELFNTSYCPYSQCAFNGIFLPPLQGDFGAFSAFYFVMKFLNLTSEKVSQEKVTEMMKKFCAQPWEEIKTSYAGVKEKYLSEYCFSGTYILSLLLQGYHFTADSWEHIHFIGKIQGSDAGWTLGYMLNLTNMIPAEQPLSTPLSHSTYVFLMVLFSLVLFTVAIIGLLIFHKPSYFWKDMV
Procedure: (§2) Antibody I-394 was tested in two repeated experiments for binding to CHO cells expressing human CD39, CHO cells expressing cynomolgus (Macaca fascicularis) CD39, CHO cells expressing murine CD39, and human Ramos lymphoma cells (ATCC™, reference CRL-1596). Cells were incubated with various concentration of unlabeled anti-CD39 antibody from 30 μg/ml to 5×10^−4 μg/ml, for 30 minutes at 4° C. After washes, cells were incubated with Goat anti-mouse H+L labeled secondary antibody for 30 min at 4° C.

[3] = target: T3, CD39 (Homo sapiens, UniProt P49961); experiment: ELISA titration on huCD39 (vascular isoform); format: binding; design: made in house
T3 sequence (P49961 1-510): T2 sequence (P49961 1-510)
Procedure: as §1

[4] = tested on: allogenic CD4 T cells; experiment: Mixed lymphocytes reaction (MLR) with ATP-activated DC; format: cell-based, human; conditions: MoDC activated in presence of ATP and antibody
Procedure: Briefly, human monocytes were purified from human healthy blood and differentiated into MoDC in presence of GM-CSF and IL-4 during 6 days. Then MoDC were activated in presence of ATP (Sigma, 0.25-1 mM) during 24 hours and DC activation were assessed by analyzing CD80, CD83 and HLA-DR expression by flow cytometry. In some cases, MoDC were preincubated for 1 hour in presence of CD39 inhibitor: […] (Tocris, 250 μM), CD73 inhibitor: APCP (Tocris 50 μM), anti-CD39 blocking antibody I-394 or BY40 (for BY40 see WO2009/095478), or anti-CD73 blocking antibodies. LPS (Invivogen, 10 ng/ml) was used as positive control. To assess resulting effect of ATP-mediated DC activation on CD4 T cells activation, ATP-activated DC were washed and then incubated with allogenic CD4 T cells (ratio 1 MoDC/4 T cells) for a mixed lymphocytes reaction (MLR) during 5 days. T cells activation and proliferation were analyzed through CD25 expression and Cell Trace Violet dilution by flow cytometry (FIG. 8).
Antibodies were tested to assess their efficacy in reducing T cell suppression in the assay described in Example 12. […] T cells activation and proliferation were analyzed through CD25 expression and Cell Trace Violet dilution by flow cytometry.

[5] = target: T4, CHO cells expressing murine CD39 (Mus musculus, UniProt P55772); experiment: Antibody titration on CHO-moCD39 by flow cytometry; format: binding; conditions: qualitative
T4 construct: expressed in transfected cells; host or cells: CHO
T4 sequence (P55772 1-510): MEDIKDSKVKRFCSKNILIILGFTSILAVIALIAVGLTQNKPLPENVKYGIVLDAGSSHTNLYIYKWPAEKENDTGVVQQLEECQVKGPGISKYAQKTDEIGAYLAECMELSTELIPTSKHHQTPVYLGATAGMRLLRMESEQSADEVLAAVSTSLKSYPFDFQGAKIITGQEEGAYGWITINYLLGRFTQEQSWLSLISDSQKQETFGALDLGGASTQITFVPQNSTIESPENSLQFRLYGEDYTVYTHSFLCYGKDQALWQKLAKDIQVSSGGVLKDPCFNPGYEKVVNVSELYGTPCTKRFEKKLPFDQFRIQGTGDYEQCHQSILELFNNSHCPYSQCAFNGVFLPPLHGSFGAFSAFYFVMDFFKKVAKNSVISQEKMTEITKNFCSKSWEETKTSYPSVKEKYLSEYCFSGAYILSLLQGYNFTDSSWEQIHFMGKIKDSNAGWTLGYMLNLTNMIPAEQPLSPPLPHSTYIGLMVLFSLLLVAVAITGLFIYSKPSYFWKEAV
Procedure: as §2

binding to Ramos lymphoma cells [2]: bound
binding to CD39 in ELISA [3]: bound to the CD39
binding to cells expressing murine CD39 (CHO-moCD39) [5]: but not to cells expressing murine CD39
Substance: I-394: anti-CD39 antibody, VH SEQ ID NO: 6, VL SEQ ID NO: 7, human IgG1 Fc with L234A/L235E/G237A/A330S/P331S
binding to CD39-L1 in ELISA [1]: not to any of the isoforms CD39-L1, -L2, -L3 or -L4
T cells proliferation and activation in MLR (CD25, Cell Trace Violet dilution) [4]: resulted in higher T cells proliferation and activation
